From ChEMBL document CHEMBL2074270, “Transport of amphipathic anions by human multidrug resistance protein 3” (Cancer Res, 2000)

Assays:
Assay type in all cases: functional, cell membranes
Conditions in all cases: Membrane vesicle
[1] = substrate: CCCCC/C=C\C/C=C\C=C\C=C\[C@@H](SC[C@@H](NC(=O)CC[C@H](N)C(=O)O)C(=O)NCC(=O)O)[C@@H](O)CCCC(=O)O; assay: (§1) TP_TRANSPORTER: uptake in membrane vesicles from MRP3-expressing HEK293 cells
[2] = substrate: CN(Cc1cnc2nc(N)nc(N)c2n1)c1ccc(C(=O)N[C@@H](CCC(=O)O)C(=O)O)cc1; assay: as §1
[3] = substrate: C[C@H](CCC(=O)NCC(=O)O)[C@H]1CC[C@H]2[C@@H]3[C@H](O)C[C@@H]4C[C@H](O)CC[C@]4(C)[C@H]3C[C@H](O)[C@]12C; assay: as §1
[4] = substrate: C[C@]12CC[C@@H]3c4ccc(O)cc4CC[C@H]3[C@@H]1CC[C@@H]2O[C@@H]1O[C@H](C(=O)O)[C@@H](O)[C@H](O)[C@H]1O; assay: as §1
[5] = substrate: N[C@@H](CCC(=O)N[C@H](CSc1ccc([N+](=O)[O-])cc1[N+](=O)[O-])C(=O)NCC(=O)O)C(=O)O; assay: as §1

B1: Multidrug resistance associated protein (Homo sapiens), Q96QA9 (protein)
chain: MDALCGSGELGSKFWDSNLSVHTENPDLTPCFQNSLLAWVPCIYLWVALPCYLLYLRHHCRGYIILSHLSKLKMVLGVLLWCVSWADLFYSFHGLVHGRAPAPVFFVTPLVVGVTMLLATLLIQYERLQGVQSSGVLIIFWFLCVVCAIVPFRSKILLAKAEGEISDPFRFTTFYIHFALVLSALILACFREKPPFFSAKNVDPNPYPETSAGFLSRLFFWWFTKMAIYGYRHPLEEKDLWSLKEEDRSQMVVQQLLEAWRKQEKQTARHKASAAPGKNASGEDEVLLGARPRPRKPSFLKALLATFGSSFLISACFKLIQDLLSFINPQLLSILIRFISNPMAPSWWGFLVAGLMFLCSMMQSLILQHYYHYIFVTGVKFRTGIMGVIYRKALVITNSVKRASTVGEIVNLMSVDAQRFMDLAPFLNLLWSAPLQIILAIYFLWQNLGPSVLAGVAFMVLLIPLNGAVAVKMRAFQVKQMKLKDSRIKLMSEILNGIKVLKLYAWEPSFLKQVEGIRQGELQLLRTAAYLHTTTTFTWMCSPFLVTLITLWVYVYVDPNNVLDAEKAFVSVSLFNILRLPLNMLPQLISNLTQASVSLKRIQQFLSQEELDPQSVERKTISPGYAITIHSGTFTWAQDLPPTLHSLDIQVPKGALVAVVGPVGCGKSSLVSALLGEMEKLEGKVHMKGSVAYVPQQAWIQNCTLQENVLFGKALNPKRYQQTLEACALLADLEMLPGGDQTEIGEKGINLSGGQRQRVSLARAVYSDADIFLLDDPLSAVDSHVAKHIFDHVIGPEGVLAGKTRVLVTHGISFLPQTDFIIVLADGQVSEMGPYPALLQRNGSFANFLCNYAPDEDQGHLEDSWTALEGAEDKEALLIEDTLSNHTDLTDNDPVTYVVQKQFMRQLSALSSDGEGQGRPVPRRHLGPSEKVQVTEAKADGALTQEEKAAIGTVELSVFWDYAKAVGLCTTLAICLLYVGQSAAAIGANVWLSAWTNDAMADSRQNNTSLRLGVYAALGILQGFLVMLAAMAMAAGGIQAARVLHQALLHNKIRSPQSFFDTTPSGRILNCFSKDIYVVDEVLAPVILMLLNSFFNAISTLVVIMASTPLFTVVILPLAVLYTLVQRFYAATSRQLKRLESVSRSPIYSHFSETVTGASVIRAYNRSRDFEIISDTKVDANQRSCYPYIISNRWLSIGVEFVGNCVVLFAALFAVIGRSSLNPGLVGLSVSYSLQVTFALNWMIRMMSDLESNIVAVERVKEYSKTETEAPWVVEGSRPPEGWPPRGEVEFRNYSVRYRPGLDLVLRDLSLHVHGGEKVGIVGRTGAGKSSMTLCLFRILEAAKGEIRIDGLNVADIGDPILFSGTLRMNLDPFGSYSEEDIWWALELSHLHTFVSSQPAGLDFQCSEGGENLSVGQRQLVCLARALLRKSRILVLDEATAAIDLETDNLIQATIRTQFDTCTVLTIAHRLNTIMDYTRVLVLDKGVVAEFDSPANLIAARGIFYGMARDAGLA
[1]
  Km: 5.3 µM
[2]
  Km: 776 µM
[3]
  Km: 248 µM
[4]
  Km: 25.6 µM
[5]
  Km: 5.7 µM
